Experimental data reported in US20170166618A1 (Novartis, published 2017).

Target: FGF23 receptor
Experiment: cell-based or functional assay

Egr-1-luciferase reporter activity, fold change at about 0.6 nM, with heparin (20 µg/ml): 2 fold change | Egr-1-luciferase reporter activity, fold change at about 1.21 nM, no heparin: 1.2 fold change | Egr-1-luciferase reporter activity, fold change at about 19.3 nM, no heparin: 2.4 fold change
B1: sKlotho-FGF23-6×His fusion polypeptide (ligand)
chain: EPGDGAQTWARFSRPPAPEAAGLFQGTFPDGFLWAVGSAAYQTEGGWQQHGKGASIWDTFTHHPLAPPGDSRNASLPLGAPSPLQPATGDVASDSYNNVFRDTEALRELGVTHYRFSISWARVLPNGSAGVPNREGLRYYRRLLERLRELGVQPVVTLYHWDLPQRLQDAYGGWANRALADHFRDYAELCFRHFGGQVKYWITIDNPYVVAWHGYATGRLAPGIRGSPRLGYLVAHNLLLAHAKVWHLYNTSFRPTQGGQVSIALSSHWINPRRMTDHSIKECQKSLDFVLGWFAKPVFIDGDYPESMKNNLSSILPDFTESEKKFIKGTADFFALCFGPTLSFQLLDPHMKFRQLESPNLRQLLSWIDLEFNHPQIFIVENGWFVSGTTKRDDAKYMYYLKKFIMETLKAIKLDGVDVIGYTAWSLMDGFEWHRGYSIRRGLFYVDFLSQDKMLLPKSSALFYQKLIEKNGFPPLPENQPLEGTFPCDFAWGVVDNYIQVDTTLSQFTDLNVYLWDVHHSKRLIKVDGVVTKKRKSYCVDFAAIQPQIALLQEMHVTHFRFSLDWALILPLGNQSQVNHTILQYYRCMASELVRVNITPVVALWQPMAPNQGLPRLLARQGAWENPYTALAFAEYARLCFQELGHHVKLWITMNEPYTRNMTYSAGHNLLKAHALAWHVYNEKFRHAQNGKISIALQADWIEPACPFSQKDKEVAERVLEFDIGWLAEPIFGSGDYPWVMRDWLNQRNNFLLPYFTEDEKKLIQGTFDFLALSHYTTILVDSEKEDPIKYNDYLEVQEMTDITWLNSPSQVAVVPWGLRKVLNWLKFKYGDLPMYIISNGIDDGLHAEDDQLRVYYMQNYINEALKAHILDGINLCGYFAYSFNDRTAPRFGLYRYAADQFEPKASMKHYRKIIDSNGFPGPETLERFCPEEFTVCTECSFFHTRKSLGSGGGGSGGGGSGGGGSLKYPNASPLLGSSWGGLIHLYTATARNSYHLQIHKNGHVDGAPHQTIYSALMIRSEDAGFVVITGVMSRRYLCMDFRGNIFGSHYFDPENCRFQHQTLENGYDVYHSPQYHFLVSLGRAKRAFLPGMNPPPYSQFLSRRNEIPLIHFNTPIPRRHTQSAEDDSERDPLNVLKPRARMTPAPASCSQELPSAEDNSPMASDPLGVVRGGRVNTHAGGTGPEGCRPFAKFIHHHHHH
